According to patent US20230250154A1 (CYTONICS, published 2023):

T1: MMP2 (human, UniProt P08253 110-660, limits assumed)
T1 sequence (looked up): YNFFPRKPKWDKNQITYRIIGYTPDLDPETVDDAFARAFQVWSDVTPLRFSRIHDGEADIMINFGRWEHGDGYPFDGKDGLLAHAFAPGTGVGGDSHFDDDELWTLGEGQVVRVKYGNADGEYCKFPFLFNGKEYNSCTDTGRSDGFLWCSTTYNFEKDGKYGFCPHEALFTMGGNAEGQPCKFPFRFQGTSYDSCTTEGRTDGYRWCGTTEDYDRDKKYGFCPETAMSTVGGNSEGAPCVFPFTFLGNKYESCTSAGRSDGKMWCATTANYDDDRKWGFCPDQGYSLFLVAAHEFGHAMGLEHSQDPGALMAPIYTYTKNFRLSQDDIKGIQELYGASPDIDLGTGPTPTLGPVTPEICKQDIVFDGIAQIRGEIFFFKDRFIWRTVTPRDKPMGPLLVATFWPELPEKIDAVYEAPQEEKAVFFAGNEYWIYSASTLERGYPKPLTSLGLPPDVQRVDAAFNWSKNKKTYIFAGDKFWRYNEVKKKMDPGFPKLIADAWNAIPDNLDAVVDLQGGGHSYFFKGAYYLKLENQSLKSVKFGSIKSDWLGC

T2: ADAMTS4 (human, UniProt O75173 213-685, limits assumed)
T2 sequence (looked up): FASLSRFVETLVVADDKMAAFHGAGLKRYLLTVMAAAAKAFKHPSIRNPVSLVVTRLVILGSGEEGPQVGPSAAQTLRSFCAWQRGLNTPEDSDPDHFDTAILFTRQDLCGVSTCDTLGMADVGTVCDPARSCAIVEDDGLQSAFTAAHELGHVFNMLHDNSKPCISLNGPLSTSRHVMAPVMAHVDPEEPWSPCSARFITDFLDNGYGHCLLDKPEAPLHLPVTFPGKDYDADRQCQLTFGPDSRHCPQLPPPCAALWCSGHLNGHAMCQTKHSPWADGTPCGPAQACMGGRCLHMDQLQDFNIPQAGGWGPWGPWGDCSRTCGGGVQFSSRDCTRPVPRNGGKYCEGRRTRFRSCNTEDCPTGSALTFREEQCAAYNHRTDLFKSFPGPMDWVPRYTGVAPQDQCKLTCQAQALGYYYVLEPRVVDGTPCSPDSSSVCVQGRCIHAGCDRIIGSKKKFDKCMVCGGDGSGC

T3: ADAMTS5 (human, UniProt Q9UNA0 262-622, limits assumed)
T3 sequence (looked up): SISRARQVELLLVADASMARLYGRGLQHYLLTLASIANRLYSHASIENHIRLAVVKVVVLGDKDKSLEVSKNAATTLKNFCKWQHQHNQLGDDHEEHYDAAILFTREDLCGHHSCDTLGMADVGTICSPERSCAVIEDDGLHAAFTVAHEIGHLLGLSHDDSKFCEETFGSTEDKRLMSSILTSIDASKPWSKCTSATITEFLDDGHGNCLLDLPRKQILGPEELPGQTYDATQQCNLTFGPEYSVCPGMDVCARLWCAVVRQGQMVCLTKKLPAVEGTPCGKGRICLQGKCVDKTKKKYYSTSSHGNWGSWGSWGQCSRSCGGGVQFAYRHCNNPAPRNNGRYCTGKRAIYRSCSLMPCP

T4: MMP7 (UniProt P09237 95-267, limits assumed)
T4 sequence (looked up): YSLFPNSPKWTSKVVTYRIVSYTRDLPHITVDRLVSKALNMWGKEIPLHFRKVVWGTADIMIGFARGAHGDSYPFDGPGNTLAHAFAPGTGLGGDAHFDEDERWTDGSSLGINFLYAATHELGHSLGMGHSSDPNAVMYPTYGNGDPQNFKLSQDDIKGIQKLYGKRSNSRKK

T5: Cathepsin G (UniProt P08311 21-244)
T5 sequence (looked up): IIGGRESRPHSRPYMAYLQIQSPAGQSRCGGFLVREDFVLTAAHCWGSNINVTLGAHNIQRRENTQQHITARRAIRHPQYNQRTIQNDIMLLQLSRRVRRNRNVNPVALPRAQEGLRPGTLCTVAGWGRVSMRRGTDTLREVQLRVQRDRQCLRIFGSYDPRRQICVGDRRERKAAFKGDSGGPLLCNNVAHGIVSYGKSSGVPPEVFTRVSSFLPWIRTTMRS

T6: MMP1 (human, UniProt P03956 100-469, limits assumed)
T6 sequence (looked up): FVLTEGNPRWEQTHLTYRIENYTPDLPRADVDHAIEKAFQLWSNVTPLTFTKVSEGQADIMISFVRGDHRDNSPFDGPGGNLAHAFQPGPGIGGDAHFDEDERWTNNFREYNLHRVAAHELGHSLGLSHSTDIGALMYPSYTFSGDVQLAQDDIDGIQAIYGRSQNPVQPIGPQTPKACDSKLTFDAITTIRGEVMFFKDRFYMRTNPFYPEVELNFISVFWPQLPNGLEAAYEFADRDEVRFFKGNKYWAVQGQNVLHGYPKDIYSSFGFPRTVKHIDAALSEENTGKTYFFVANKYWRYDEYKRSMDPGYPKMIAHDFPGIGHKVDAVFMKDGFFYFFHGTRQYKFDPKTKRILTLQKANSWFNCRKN


Columns and labels:
Test in all cases: cell-based or functional assay
MMP2 = target: T1, MMP2
ADAMTS4 = target: T2, ADAMTS4
MMP3 = MMP3 (human, UniProt P08254 100-477, limits assumed)
Chain of MMP3 (P08254 100-477 limits assumed): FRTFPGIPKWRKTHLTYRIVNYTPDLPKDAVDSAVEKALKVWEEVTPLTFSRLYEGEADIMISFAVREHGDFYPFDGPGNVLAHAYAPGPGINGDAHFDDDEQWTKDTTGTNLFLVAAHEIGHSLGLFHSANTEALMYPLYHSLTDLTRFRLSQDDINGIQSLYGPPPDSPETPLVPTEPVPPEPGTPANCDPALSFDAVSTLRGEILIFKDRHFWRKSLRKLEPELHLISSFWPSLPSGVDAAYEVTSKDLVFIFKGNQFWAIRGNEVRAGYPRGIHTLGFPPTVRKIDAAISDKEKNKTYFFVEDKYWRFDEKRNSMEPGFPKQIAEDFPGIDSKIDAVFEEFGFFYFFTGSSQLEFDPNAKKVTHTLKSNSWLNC

MMP8 = MMP8 (human, UniProt P22894 101-467, limits assumed)
Chain of MMP8 (P22894 101-467 limits assumed): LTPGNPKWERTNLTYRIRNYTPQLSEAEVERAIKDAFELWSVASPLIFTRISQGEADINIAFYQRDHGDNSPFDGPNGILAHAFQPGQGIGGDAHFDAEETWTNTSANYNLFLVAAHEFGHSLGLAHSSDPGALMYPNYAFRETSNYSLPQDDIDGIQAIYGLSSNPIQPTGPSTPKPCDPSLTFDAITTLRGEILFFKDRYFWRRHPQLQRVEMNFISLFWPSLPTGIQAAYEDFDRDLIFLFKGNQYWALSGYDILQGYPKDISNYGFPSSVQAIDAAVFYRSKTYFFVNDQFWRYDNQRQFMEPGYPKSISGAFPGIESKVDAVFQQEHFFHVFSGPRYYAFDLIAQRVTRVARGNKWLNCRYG

ADAMTS5 = target: T3, ADAMTS5
MMP7 = target: T4, MMP7
Cathepsin G = target: T5, Cathepsin G
MMP13 = MMP13 (human, UniProt P45452 104-471, limits assumed)
MMP1 = target: T6, MMP1
MMP9 = MMP9 (human, UniProt P14780 107-707, limits assumed)
Chain of MMP9 (P14780 107-707 limits assumed): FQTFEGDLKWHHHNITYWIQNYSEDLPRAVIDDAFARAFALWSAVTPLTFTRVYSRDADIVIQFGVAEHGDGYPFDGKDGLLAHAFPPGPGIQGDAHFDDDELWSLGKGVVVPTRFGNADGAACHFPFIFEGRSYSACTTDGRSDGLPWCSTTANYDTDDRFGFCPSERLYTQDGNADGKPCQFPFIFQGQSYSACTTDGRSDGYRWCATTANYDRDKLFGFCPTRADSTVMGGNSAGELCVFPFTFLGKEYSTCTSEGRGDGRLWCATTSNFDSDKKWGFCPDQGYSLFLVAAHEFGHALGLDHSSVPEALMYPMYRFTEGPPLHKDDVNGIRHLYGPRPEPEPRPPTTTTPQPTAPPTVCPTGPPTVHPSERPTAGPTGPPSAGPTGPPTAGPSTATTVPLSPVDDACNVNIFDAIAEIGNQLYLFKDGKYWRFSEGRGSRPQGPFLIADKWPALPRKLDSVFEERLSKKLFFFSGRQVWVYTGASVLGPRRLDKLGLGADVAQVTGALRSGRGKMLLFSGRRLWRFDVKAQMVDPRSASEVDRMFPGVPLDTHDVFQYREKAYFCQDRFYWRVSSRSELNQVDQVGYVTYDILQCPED

Elastase = target: Elastase

Row | Binder | Protease Inhibition (% of WT) (MMP2) | Protease Inhibition (% of WT) (ADAMTS4) | Protease Inhibition (% of WT) (MMP3) | Protease Inhibition (% of WT) (MMP8) | Protease Inhibition (% of WT) (ADAMTS5) | Protease Inhibition (% of WT) (MMP7) | Protease Inhibition (% of WT) (Cathepsin G) | Protease Inhibition (% of WT) (MMP13) | Protease Inhibition (% of WT) (MMP1) | Protease Inhibition (% of WT) (MMP9) | Protease Inhibition (% of WT) (Elastase)
1 | Variant A2M, bait region SEQ ID NO 14 (other) SVSGKPQYMVLVPSLLHTETTEKGCVLLSYLNETVTVSASLESVRGNRSLFTDLEAENDVLHCVAFAVPKSSSNEEVMFLTVQVKGPTQEFKKRTTVMVKNEDSLVFVQTDKSIYKPGQTVKFRVVSMDENFHPLNELIPLVYIQDPKGNRIAQWQSFQLEGGLKQFSFPLSSEPFQGSYKVVVQKKSGGRTEHPFTVEEFVLPKFEVQVTVPKIITILEEEMNVSVCGLYTYGKPVPGHVTVSICRKYSDASDCHGEDSQAFCEKFSGQLNSHGCFYQQVKTKVFQLKRKEYEMKLHTEAQIQEEGTVVELTGRQSSEITRTITKLSFVKVDSHFRQGIPFFGQVRLVDGKGVPIPNKVIFIRGNEANYYSNATTDEHGLVQFSINTTNVMGTSLTVRVNYKDRSPCYGYQWVSEEHEEAHHTAYLVFSPSKSFVHLEPMSHELPCGHTQTVQAHYILNGGTLLGLKKLSFYYLIMAKGGIVRTGTHGLLVKQEDMKGHFSISIPVKSDIAPVARLLIYAVLPTGDVIGDSAKYDVENCLANKVDLSFSPSQSLPASHAHLRVTAAPQSVCALRAVDQSVLLMKPDAELSASSVYNLLPEKDLTGFPGPLNDQDDEDCINRHNVYINGITYTPVSSTNEKDMYSFLEDMGLKAFTNSKIRKPKMCPQLEHGPEGEGEGEGIPRYLTAENFFGVSEDLVVQISELEGRGSVEEPHTKLRKYFPETWIWDLVVVNSAGVAEVGVTVPDTITEWKAGAFCLSEDAGLGISSTASLRAFQPFFVELTMPYSVIRGEAFTLKATVLNYLPKCIRVSVQLEASPAFLAVPVEKEQAPHCICANGRQTVSWAVTPKSLGNVNFTVSAEALESQELCGTEVPSVPEHGRKDTVIKPLLVEPEGLEKETTFNSLLCPSGGEVSEELSLKLPPNVVEESARASVSVLGDILGSAMQNTQNLLQMPYGCGEQNMVLFAPNIYVLDYLNETQQLTPEIKSKAIGYLNTGYQRQLNYKHYDGSYSTFGERYGRNQGNTWLTAFVLKTFAQARAYIFIDEAHITQALIWLSQRQKDNGCFRSSGSLLNNAIKGGVEDEVTLSAYITIALLEIPLTVTHPVVRNALFCLESAWKTAQEGDHGSHVYTKALLAYAFALAGNQDKRKEVLKSLNEEAVKKDNSVHWERPQKPKAPVGHFYEPQAPSAEVEMTSYVLLAYLTAQPAPTSEDLTSATNIVKWITKQQNAQGGFSSTQDTVVALHALSKYGAATFTRTGKAAQVTIQSSGTFSSKFQVDNNNRLLLQQVSLPELPGEYSMKVTGEGCVYLQTSLKYNILPEKEEFPFALGVQTLPQTCDEPKAHTSFQISLSVSYTGSRSASNMAIVDVKMVSGFIPLKPTVKMLERSNHVSRTEVSSNHVLIYLDKVSNQTLSLFFTVLQDVPVRDLKPAIVKVYDYYETDEFAIAEYNAPCSKDLGNADYKDDDDKGASHHHHHH | 10 % of WT | 236 % of WT | 169 % of WT | 39 % of WT | 105 % of WT | 61 % of WT | 99 % of WT | 66 % of WT | 60 % of WT | 14 % of WT | 67 % of WT
2 | Variant A2M, bait region SEQ ID NO 15 (other) SVSGKPQYMVLVPSLLHTETTEKGCVLLSYLNETVTVSASLESVRGNRSLFTDLEAENDVLHCVAFAVPKSSSNEEVMFLTVQVKGPTQEFKKRTTVMVKNEDSLVFVQTDKSIYKPGQTVKFRVVSMDENFHPLNELIPLVYIQDPKGNRIAQWQSFQLEGGLKQFSFPLSSEPFQGSYKVVVQKKSGGRTEHPFTVEEFVLPKFEVQVTVPKIITILEEEMNVSVCGLYTYGKPVPGHVTVSICRKYSDASDCHGEDSQAFCEKFSGQLNSHGCFYQQVKTKVFQLKRKEYEMKLHTEAQIQEEGTVVELTGRQSSEITRTITKLSFVKVDSHFRQGIPFFGQVRLVDGKGVPIPNKVIFIRGNEANYYSNATTDEHGLVQFSINTTNVMGTSLTVRVNYKDRSPCYGYQWVSEEHEEAHHTAYLVFSPSKSFVHLEPMSHELPCGHTQTVQAHYILNGGTLLGLKKLSFYYLIMAKGGIVRTGTHGLLVKQEDMKGHFSISIPVKSDIAPVARLLIYAVLPTGDVIGDSAKYDVENCLANKVDLSFSPSQSLPASHAHLRVTAAPQSVCALRAVDQSVLLMKPDAELSASSVYNLLPEKDLTGFPGPLNDQDDEDCINRHNVYINGITYTPVSSTNEKDMYSFLEDMGLKAFTNSKIRKPKMCPQLEHGPEGEGEGEGIPENFFGVSEDLVVQISELEGRGSRYLTAVEEPHTKLRKYFPETWIWDLVVVNSAGVAEVGVTVPDTITEWKAGAFCLSEDAGLGISSTASLRAFQPFFVELTMPYSVIRGEAFTLKATVLNYLPKCIRVSVQLEASPAFLAVPVEKEQAPHCICANGRQTVSWAVTPKSLGNVNFTVSAEALESQELCGTEVPSVPEHGRKDTVIKPLLVEPEGLEKETTFNSLLCPSGGEVSEELSLKLPPNVVEESARASVSVLGDILGSAMQNTQNLLQMPYGCGEQNMVLFAPNIYVLDYLNETQQLTPEIKSKAIGYLNTGYQRQLNYKHYDGSYSTFGERYGRNQGNTWLTAFVLKTFAQARAYIFIDEAHITQALIWLSQRQKDNGCFRSSGSLLNNAIKGGVEDEVTLSAYITIALLEIPLTVTHPVVRNALFCLESAWKTAQEGDHGSHVYTKALLAYAFALAGNQDKRKEVLKSLNEEAVKKDNSVHWERPQKPKAPVGHFYEPQAPSAEVEMTSYVLLAYLTAQPAPTSEDLTSATNIVKWITKQQNAQGGFSSTQDTVVALHALSKYGAATFTRTGKAAQVTIQSSGTFSSKFQVDNNNRLLLQQVSLPELPGEYSMKVTGEGCVYLQTSLKYNILPEKEEFPFALGVQTLPQTCDEPKAHTSFQISLSVSYTGSRSASNMAIVDVKMVSGFIPLKPTVKMLERSNHVSRTEVSSNHVLIYLDKVSNQTLSLFFTVLQDVPVRDLKPAIVKVYDYYETDEFAIAEYNAPCSKDLGNADYKDDDDKGASHHHHHH | 59 % of WT | 83 % of WT | 40 % of WT | 77 % of WT | 183 % of WT | 157 % of WT | 139 % of WT | 143 % of WT | 116 % of WT | 41 % of WT | 115 % of WT
